# From patent US20220177567A1 (WASHINGTON UNIVERSITY, published 2022)
# How the values were obtained:
# [1] = target: T1, human IL12Rβ1 (native, on human primary cells) (human, UniProt P42701 24-662); experiment: summary statement; no affinity method or value given
# T1 construct: whole, on cells; Endogenous receptor on human tonsil ILC3 and peripheral blood lymphocytes; also called CD212; interleukin 12 receptor subunit beta 1
# [2] = target: T2, human FLAG-tagged IL12Rβ1 expressed on EL-4 cells (human, UniProt P42701 24-662); experiment: flow cytometry, hybridoma supernatant followed by anti-mouse IgG PE
# T2 construct: whole, on cells; EL-4 cell line transduced with a construct encoding human FLAG-tagged IL12Rβ1; also called EL-4-human IL-12Rβ1 cells; human IL12Rβ1; not shown: FLAG tag
# Description: EL-4-human IL-12Rβ1 cell line: The EL-4 cell line was transduced with a construct encoding the human FLAG-tagged IL12Rβ1 Flow cytometry: EL-4-human IL-12Rβ1 cells were stained with supernatants from different hybridoma clones followed by anti-mouse IgG Pe. Staining was compared with that obtained with anti-FLAG Tag followed by anti-mouse IgG Pe. Hybridoma clones staining the same percentage of cells stained by anti-FLAG Tag were selected and further tested in primary cells (FIG. 2).
binder,measurement,setting,value
"1G6 anti-IL12Rβ1 monoclonal antibody (antibody, V domains shown, Hybridoma monoclonal antibody, detected with anti-mouse IgG PE; Tested as hybridoma supernatant and also in biotinylated form; also called IG6; mab (1 G6)) VH: RVQLQQSGAELAKPGASVRLSCMASGYTFTSYWMHWVKQRPGQGLEWIGYIDPNNGYTKYSQKFKDKATLTADKSSSTANMRLSSLTYEDSAVYYCVRGGEIYYFDYWGQGTTLTVSS VL: DIQMTQSPSSLSASLGGKVTITCKASQDIYKYIAWYQHKPGKGPRLLIHYTSTLQPGIPSRFSGSGSGRDYSFSISDLEPEDIATYYCLQYDNILWTFGGGTKLEIKR",binding result,[1],binds
same,binding result,[2],binds
